Values of other authors in publication PMC4409539 (Cancer gene therapy, 2015).

What was measured:
pancreatic tumor cells = pancreatic tumor cells infected at 25 pfu/cell with bCD
[1] = yCD versus bCD

## bacterial cytosine deaminase [bCD]
Pancreatic tumor cells
  5-FC conversion: 0.2 to 0.7 pmol/min/mg

B1: yeast cytosine deaminase (protein, UniProt Q12178 1-158, looked up)
Cytosine deaminase: MVTGGMASKWDQKGMDIAYEEAALGYKEGGVPIGGCLINNKDGSVLGRGHNMRFQKGSATLHGEISTLENCGRLEGKVYKDTTLYTTLSPCDMCTGAIIMYGIPRCVVGENVNFKSKGEKYLQTRGHEVVVVDDERCKKIMKQFIDERPQDWFEDIGE
[1]
  Km for 5-FC, fold lower than bCD: 22 fold
  thermal stability compared with bCD: more thermolabile than bCD
